Source: US20140274782A1, “AFFINITY REAGENTS AND METHODS FOR DETECTION, PURIFICATION, AND PROTEOMIC ANALYSIS OF METHYLATED PROTEINS” (The Board of Trustees of the Leland Stanford Junior …, priority 2013, published 2014)

T1: G9a and GLP (Homo sapiens, UniProt Q96KQ7+Q9H9B1)
T1 sequence (Q96KQ7 2-1210 limits assumed): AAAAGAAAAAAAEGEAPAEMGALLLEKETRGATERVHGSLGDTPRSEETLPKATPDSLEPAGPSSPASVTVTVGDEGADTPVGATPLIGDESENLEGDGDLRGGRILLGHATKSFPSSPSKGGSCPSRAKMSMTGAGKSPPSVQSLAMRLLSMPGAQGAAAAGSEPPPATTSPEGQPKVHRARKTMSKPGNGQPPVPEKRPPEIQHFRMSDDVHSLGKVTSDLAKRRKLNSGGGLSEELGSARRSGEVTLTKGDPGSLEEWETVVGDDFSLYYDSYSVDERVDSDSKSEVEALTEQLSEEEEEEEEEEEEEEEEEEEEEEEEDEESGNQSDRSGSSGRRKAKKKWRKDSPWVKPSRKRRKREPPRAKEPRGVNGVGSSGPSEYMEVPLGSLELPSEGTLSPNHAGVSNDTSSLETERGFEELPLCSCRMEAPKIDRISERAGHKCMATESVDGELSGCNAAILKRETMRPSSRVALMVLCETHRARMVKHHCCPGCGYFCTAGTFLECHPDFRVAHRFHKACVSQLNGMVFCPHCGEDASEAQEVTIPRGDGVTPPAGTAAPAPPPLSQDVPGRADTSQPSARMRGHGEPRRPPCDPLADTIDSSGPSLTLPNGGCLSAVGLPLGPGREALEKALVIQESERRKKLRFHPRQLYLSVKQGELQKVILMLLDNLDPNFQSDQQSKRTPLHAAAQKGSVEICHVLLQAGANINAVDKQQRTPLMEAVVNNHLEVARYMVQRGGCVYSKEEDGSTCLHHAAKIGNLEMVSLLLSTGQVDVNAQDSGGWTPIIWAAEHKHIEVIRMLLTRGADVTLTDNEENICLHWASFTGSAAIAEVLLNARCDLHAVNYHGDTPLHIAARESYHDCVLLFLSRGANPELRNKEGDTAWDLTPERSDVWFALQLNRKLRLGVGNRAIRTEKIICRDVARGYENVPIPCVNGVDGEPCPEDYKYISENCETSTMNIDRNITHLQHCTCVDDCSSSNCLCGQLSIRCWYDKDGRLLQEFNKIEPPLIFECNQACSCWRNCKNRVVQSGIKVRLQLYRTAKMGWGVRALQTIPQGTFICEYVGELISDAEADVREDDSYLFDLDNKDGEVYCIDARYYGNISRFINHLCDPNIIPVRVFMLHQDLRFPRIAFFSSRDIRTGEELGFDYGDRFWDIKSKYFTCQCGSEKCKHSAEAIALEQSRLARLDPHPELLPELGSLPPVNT
T1 sequence (Q9H9B1 2-1298 limits assumed): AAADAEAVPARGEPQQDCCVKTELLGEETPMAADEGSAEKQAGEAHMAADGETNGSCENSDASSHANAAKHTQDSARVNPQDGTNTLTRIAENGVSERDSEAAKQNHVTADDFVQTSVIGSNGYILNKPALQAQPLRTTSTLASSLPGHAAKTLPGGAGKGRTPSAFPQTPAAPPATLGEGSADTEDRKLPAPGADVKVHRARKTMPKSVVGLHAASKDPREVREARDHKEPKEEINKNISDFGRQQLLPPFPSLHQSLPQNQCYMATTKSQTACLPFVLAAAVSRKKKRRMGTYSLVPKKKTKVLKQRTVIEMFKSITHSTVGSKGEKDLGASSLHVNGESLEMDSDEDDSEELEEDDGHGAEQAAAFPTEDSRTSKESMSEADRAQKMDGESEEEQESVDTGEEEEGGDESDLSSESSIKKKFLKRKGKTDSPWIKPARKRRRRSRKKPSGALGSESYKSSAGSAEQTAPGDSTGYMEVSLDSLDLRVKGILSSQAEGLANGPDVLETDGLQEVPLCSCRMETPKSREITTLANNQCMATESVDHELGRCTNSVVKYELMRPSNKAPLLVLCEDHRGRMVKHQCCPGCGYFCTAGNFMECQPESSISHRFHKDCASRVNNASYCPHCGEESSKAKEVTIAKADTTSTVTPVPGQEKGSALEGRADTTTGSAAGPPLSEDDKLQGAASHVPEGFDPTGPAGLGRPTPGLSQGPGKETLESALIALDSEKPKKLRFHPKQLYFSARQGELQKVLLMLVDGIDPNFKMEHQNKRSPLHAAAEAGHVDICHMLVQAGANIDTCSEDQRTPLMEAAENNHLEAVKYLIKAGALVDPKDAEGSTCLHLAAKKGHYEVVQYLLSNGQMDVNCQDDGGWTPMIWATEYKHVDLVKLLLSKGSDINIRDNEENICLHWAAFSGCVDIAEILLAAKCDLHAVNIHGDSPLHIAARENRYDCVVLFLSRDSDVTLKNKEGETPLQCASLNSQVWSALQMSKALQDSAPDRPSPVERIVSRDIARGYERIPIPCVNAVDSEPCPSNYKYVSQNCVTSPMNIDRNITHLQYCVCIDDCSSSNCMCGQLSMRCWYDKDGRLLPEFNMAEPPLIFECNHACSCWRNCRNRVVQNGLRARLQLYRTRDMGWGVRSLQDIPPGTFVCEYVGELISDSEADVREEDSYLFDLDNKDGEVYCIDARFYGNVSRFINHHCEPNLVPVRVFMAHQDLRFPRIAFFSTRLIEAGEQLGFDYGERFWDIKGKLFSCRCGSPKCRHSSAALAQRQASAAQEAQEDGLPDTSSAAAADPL

B1: HNRNPC (protein, UniProt P07910 2-306, looked up)
Heterogeneous nuclear …: ASNVTNKTDPRSMNSRVFIGNLNTLVVKKSDVEAIFSKYGKIVGCSVHKGFAFVQYVNERNARAAVAGEDGRMIAGQVLDINLAAEPKVNRGKAGVKRSAAEMYGSVTEHPSPSPLLSSSFDLDYDFQRDYYDRMYSYPARVPPPPPIARAVVPSKRQRVSGNTSRRGKSGFNSKSGQRGSSKSGKLKGDDLQAIKKELTQIKQKVDSLLENLEKIEKEQSKQAVEMKNDKSEEEQSSSSVKKDETNVKMESEGGADDSAEEGDLLDDDDNEDRGDDQLELIKDDEKEAEEGEDDRDSANGEDDS
B2: TCERG1 (protein, UniProt O14776 1-1098, looked up)
Transcription elongation …: MAERGGDGGESERFNPGELRMAQQQALRFRGPAPPPNAVMRGPPPLMRPPPPFGMMRGPPPPPRPPFGRPPFDPNMPPMPPPGGIPPPMGPPHLQRPPFMPPPMSSMPPPPGMMFPPGMPPVTAPGTPALPPTEEIWVENKTPDGKVYYYNARTRESAWTKPDGVKVIQQSELTPMLAAQAQVQAQAQAQAQAQAQAQAQAQAQAQAQAQAQAQAQAQAQAQAQAQAQAQAQAQAQAQAQAQVQAQVQAQVQAQAVGASTPTTSSPAPAVSTSTSSSTPSSTTSTTTTATSVAQTVSTPTTQDQTPSSAVSVATPTVSVSTPAPTATPVQTVPQPHPQTLPPAVPHSVPQPTTAIPAFPPVMVPPFRVPLPGMPIPLPGVAMMQIVSCPYVKTVATTKTGVLPGMAPPIVPMIHPQVAIAASPATLAGATAVSEWTEYKTADGKTYYYNNRTLESTWEKPQELKEKEKLEEKIKEPIKEPSEEPLPMETEEEDPKEEPIKEIKEEPKEEEMTEEEKAAQKAKPVATAPIPGTPWCVVWTGDERVFFYNPTTRLSMWDRPDDLIGRADVDKIIQEPPHKKGMEELKKLRHPTPTMLSIQKWQFSMSAIKEEQELMEEINEDEPVKAKKRKRDDNKDIDSEKEAAMEAEIKAARERAIVPLEARMKQFKDMLLERGVSAFSTWEKELHKIVFDPRYLLLNPKERKQVFDQYVKTRAEEERREKKNKIMQAKEDFKKMMEEAKFNPRATFSEFAAKHAKDSRFKAIEKMKDREALFNEFVAAARKKEKEDSKTRGEKIKSDFFELLSNHHLDSQSRWSKVKDKVESDPRYKAVDSSSMREDLFKQYIEKIAKNLDSEKEKELERQARIEASLREREREVQKARSEQTKEIDREREQHKREEAIQNFKALLSDMVRSSDVSWSDTRRTLRKDHRWESGSLLEREEKEKLFNEHIEALTKKKREHFRQLLDETSAITLTSTWKEVKKIIKEDPRCIKFSSSDRKKQREFEEYIRDKYITAKADFRTLLKETKFITYRSKKLIQESDQHLKDVEKILQNDKRYLVLDCVPEERRKLIVAYVDDLDRRGPPPPPTASEPTRRSTK
B3: ALKBH5 (protein, UniProt Q6P6C2 2-394, looked up)
RNA demethylase ALKBH5: AAASGYTDLREKLKSMTSRDNYKAGSREAAAAAAAAVAAAAAAAAAAEPYPVSGAKRKYQEDSDPERSDYEEQQLQKEEEARKVKSGIRQMRLFSQDECAKIEARIDEVVSRAEKGLYNEHTVDRAPLRNKYFFGEGYTYGAQLQKRGPGQERLYPPGDVDEIPEWVHQLVIQKLVEHRVIPEGFVNSAVINDYQPGGCIVSHVDPIHIFERPIVSVSFFSDSALCFGCKFQFKPIRVSEPVLSLPVRRGSVTVLSGYAADEITHCIRPQDIKERRAVIILRKTRLDAPRLETKSLSSSVLPPSYASDRLSGNNRDPALKPKRSHRKADPDAAHRPRILEMDKEENRRSVLLPTHRRRGSFSSENYWRKSYESSEDCSEAAGSPARKVKMRRH

Columns and labels:
3×MBT domain of L3MBTL1 = assay: Triple SILAC pull-down, 3xMBT/3xMBTD355N ratio (cytoplasmic, nuclear and chromatin fractions of 293T cells); format: binding, human; settings: SILAC ratio, pull-down 3xMBT vs 3xMBTD355N; for 3xMBT/D355N UNC Heavy: experiment with UNC0638 in heavy SILAC media; for 3xMBT/D355N UNC Light: experiment with UNC0638 in light SILAC media;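 as to all read-outs here: proteins quantified with MaxQuant, requiring at least two unique peptides and quantification in both label directions, normalized to the mean of proteins from a digested loading control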
G9a and GLP = biological target: T1, G9a and GLP; assay: Triple SILAC pull-down after UNC0638 treatment of 293T cells, DMSO/UNC0638 ratio of protein captured by 3×MBT; format: cell-based; parameters: cells were treated for 24 hours with UNC0638 at 2.5 μM or DMSO vehicle control; endogenous in cells; host or cells: HEK 293T; settings: for Relative to UNC0638 UNC Heavy / Relative to UNC0638 UNC Light: SILAC ratio DMSO/UNC0638 of protein pulled down with 3xMBT; for Relative to UNC0638 UNC Heavy: UNC0638 in heavy SILAC media; for Relative to UNC0638 UNC Light: UNC0638 in light SILAC media; for Relative to UNC0638 Average: average of UNC Light and UNC Heavy experiments;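 as to all read-outs here: mass spectrometry (Q-Exactive) SILAC quantitation, DMSO/UNC0638 ratio computed after subtracting 3×MBTD355N mutant pull-down background, only proteins with at least twofold 3×MBT over mutant signal considered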

Molecule | 3xMBT/D355N UNC Heavy (3×MBT domain of L3MBTL1) [log base 2] | 3xMBT/D355N UNC Light (3×MBT domain of L3MBTL1) [log base 2] | Relative to UNC0638 UNC Heavy (G9a and GLP) [log base 2] | Relative to UNC0638 UNC Light (G9a and GLP) [log base 2] | Relative to UNC0638 Average (G9a and GLP) [log base 2]
B1 | 2.39 | 2.62 | 0.07 | 0.20 | 0.13
B2 | 2.34 | 3.64 | −0.10 | 0.37 | 0.13
B3 | 1.96 | 1.73 | 0.29 | −0.01 | 0.14
